± gives the half width of the 95% confidence interval.
What was measured:
[1] = folding stability dG unfold from trypsin proteolysis; higher = more stable
In short: (§1)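 Bayesian fitting of sequencing counts gave K50 for each design. Unfolding free energy followed by setting this against a sequence-predicted unfolded-state K50 and a shared folded-state K50, either per protease or with trypsin and chymotrypsin combined. The designs, under 80 residues and lacking cysteine, were digested in a PA-tagged cDNA display format at 11 threefold-diluted protease concentrations and without protease, and only those with AlphaFold2 dimer inter-PAE above 15 were kept.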

[2] = folding stability dG unfold from chymotrypsin proteolysis; higher = more stable
In short: as §1

[3] = folding stability dG unfold (combined trypsin and chymotrypsin); higher = more stable
In short: as §1

Sequence | folding stability dG unfold [1] | folding stability dG unfold [2] | folding stability dG unfold [3]
SAGGSAGGSAGPEVIEIKNPKTGKTYRIVRNKDGKLLIYNEATGKVAVFKDGKIELVPAPSAGGSAGGSAGG [r17_476_TrROS_Hall] | 1.14 ± 0.07 kcal/mol | 0.825 ± 0.21 kcal/mol | 1.05 ± 0.16 kcal/mol
SAGGKTVTIKAKSLEDALKAIEALPSVDKVTITVEVNGKTVTITLTVKPPPPVKYELDKNGKLVKKEKSAGG [r13_183_TrROS_Hall] | 0.794 ± 0.05 kcal/mol | 1.56 ± 0.086 kcal/mol | 1.28 ± 0.25 kcal/mol
SAGGSAGGSAGGKVTVTPDGRLVIEKPKVTVEPVEVEEVEVELELKLSPEELEELLKKLSAGGSAGGSAGGS [r10_1096_TrROS_Hall] | 0.51 ± 0.17 kcal/mol | 0.745 ± 0.044 kcal/mol | 0.554 ± 0.19 kcal/mol
SAGGDPPNIEVVPYRVKFGGKPIPIQVFVMPNGQTIVRIKFPNGKKGWMPADDLDELLKNPFEIERVSAGGS [r16_105_TrROS] | 1.21 ± 0.023 kcal/mol | 0.998 ± 0.14 kcal/mol | 1.11 ± 0.14 kcal/mol
SAGGSALPDIEVEELVRRLLELLEEDQPFRIVVFPPGGRWLTLDELLNVPAEEIPDLVVLVFVPDLSAGGSA [r15_144_TrMRF] | 3.04 ± 0.091 kcal/mol | 3.49 ± 0.06 kcal/mol | 3.3 ± 0.088 kcal/mol
SAGGSAGGSAGGGSMTTTTLTFTVPPDVTPEEVRAALEAAGYGDVAVTREGNTWTVTVTSAGGSAGGSAGGS [r10_868_JUSTAS] | 1.56 ± 0.049 kcal/mol | 2.6 ± 0.039 kcal/mol | 2.4 ± 0.1 kcal/mol
SAGGMVQISVTEIDPETGLITIEMKFPKGVDDPAKIAAAKAEAEAFAQELEKKLGLPVKVTFTPLPESAGGS [r16_304_JUSTAS] | 1.95 ± 0.037 kcal/mol | 1.9 ± 0.039 kcal/mol | 1.93 ± 0.043 kcal/mol
SAGGSAGGSAGGVEIVIMFPRGMPPEQFAKMIAKWLRRQGLPPNVKVDIKIIPIDPDDMSAGGSAGGSAGGS [r10_746_TrROS] | 2.82 ± 0.051 kcal/mol | 3.35 ± 0.066 kcal/mol | 3.15 ± 0.18 kcal/mol
SAGGSAGGSMKTLTLEGESEEEAIEKVKEYFKKKGINYKLLKIEISEKPNGTKIYTIDIDTKKSAGGSAGGS [r12_924_JUSTAS] | 1.19 ± 0.1 kcal/mol | 2.33 ± 0.1 kcal/mol | 2.04 ± 0.2 kcal/mol
SAGGGSTVTTFDPSTGKTTVSIGTDPATGERTVTIVLKNGTPVTVPGPFPSVEEAEAAAAAAAAAAASAGGS [r16_319_JUSTAS] | 0.762 ± 0.043 kcal/mol | 0.824 ± 0.041 kcal/mol | 0.818 ± 0.097 kcal/mol
SAGGMKITITLTVKNEELLEELKKLAEELGLKVKIEVKYDEETNELTVTVEIELPPPPEEPSEEELKSAGGS [r16_262_TrROS_Hall] | 2.49 ± 0.12 kcal/mol | 3.4 ± 0.14 kcal/mol | 3.24 ± 0.15 kcal/mol
SAGGMLDLSDVEVLNTVPIGGGNYLVLLKVPKLGKVVVVPASDLKKLKENVPNVKISFTPVAPSESGSAGGS [r16_61_TrMRF] | 0.601 ± 0.025 kcal/mol | 1.3 ± 0.072 kcal/mol | 1.09 ± 0.059 kcal/mol
SAGGSAGGSAGGSSKNRPLVIIDYPFYTSNPDYIVRATFINYLDENNNITEVKVEVLKASAGGSAGGSAGGS [r4_75_TrMRF] | 2.3 ± 0.22 kcal/mol | 3.14 ± 0.095 kcal/mol | 2.59 ± 0.27 kcal/mol
SAGGSAGGSAGMRPVTSVYYDPNTGRLYARFPDGVVANYELTPDGSVRLVSVAPAHPDLDSAGGSAGGSAGG [r17_61_TrMRF] | 0.992 ± 0.04 kcal/mol | 1.64 ± 0.059 kcal/mol | 1.42 ± 0.066 kcal/mol
SAGMIKVEVVEKDEKTKEWKVVETKTIPVKPGEKPTVEELAKKLKEKGYEVRIEKTKDGTLKIYVIKKKSAG [r5_269_TrROS_Hall] | 3.33 ± 0.2 kcal/mol | 4.08 ± 0.061 kcal/mol | 3.78 ± 0.16 kcal/mol
SAGVISPTDPTTTTTTEVRESEDGTTTTVSTVTYPGTGSTMTVTTTTTHDPSTGTSTVTSTTTTDPSASAGG [r19_342_JUSTAS] | 1.57 ± 0.086 kcal/mol | 0.394 ± 0.029 kcal/mol | 1.08 ± 0.059 kcal/mol
SAKKTIVVPVEKLKELLDALKEAGYEVKVEYNKENPVVTVTITVKDKNGKELKIELVVDKKTGLVTIKLSAG [r14_169_TrROS_Hall] | 1.97 ± 0.077 kcal/mol | 2.45 ± 0.051 kcal/mol | 2.26 ± 0.13 kcal/mol
SAGGSASTVTRTRTIPGSGLTVEITETPLPDGTYSYTVTFYAPDSALKTTPKTAAPDELPEEELLSSAGGSA [r15_147_JUSTAS] | 0.35 ± 0.049 kcal/mol | 1.48 ± 0.042 kcal/mol | 1.1 ± 0.06 kcal/mol
SAGGSASGYYTTTTVEIEPEGDTLTTVTTTTLGVPVTFDPVNNTLTLNLPPDQSLVTTTTVTEVAASAGGSA [r15_1040_JUSTAS] | 1.02 ± 0.04 kcal/mol | 0.857 ± 0.033 kcal/mol | 0.976 ± 0.055 kcal/mol
SAGGSAGGSAGGPLKVEVIGSIEGDDRVYVLTRVPGVGGLFVAEYEKPSGKILSVSPVPLSAGGSAGGSAGG [r7_154_TrMRF] | 0.743 ± 0.065 kcal/mol | 1.3 ± 0.15 kcal/mol | 1.07 ± 0.081 kcal/mol
SAGGSAGGSAGGAMTVETVELPSGEVVTLEYDPASGRVLTTVETPDSVERTEDPLEPPAASAGGSAGGSAGG [r7_63_JUSTAS] | 0.302 ± 0.015 kcal/mol | -0.403 ± 0.11 kcal/mol | -0.0846 ± 0.19 kcal/mol

Sequence | folding stability dG unfold [1] | folding stability dG unfold [2] | folding stability dG unfold [3]
SAGGSAGGSAGGSKTVLLKVNGKLVLKELKVEVELEAEPETTTTTTTTTTLKPGETKTLSAGGSAGGSAGGS [r4_215_TrROS_Hall] | -0.499 ± 0.17 kcal/mol | 0.397 ± 0.11 kcal/mol | 0.109 ± 0.096 kcal/mol
SAGGMELVSRKRLSTSADGSVTYLYEYYDPKTGKRYTLVVTVKTPDGKIKPKVFTADSEEEAKKIALESAGG [r13_26_JUSTAS] | 1.1 ± 0.06 kcal/mol | 1.56 ± 0.16 kcal/mol | 1.34 ± 0.11 kcal/mol
SAGGKKPKKLTPEQIEELAKALAPEGAEVKVEVVEVTEKTVVVKITVKDKETGEEKTIEITLPLPEESAGGS [r16_486_TrROS_Hall] | 2.45 ± 0.18 kcal/mol | 1.73 ± 0.14 kcal/mol | 2.24 ± 0.22 kcal/mol
SAGGSAMIEEKLIEIPPIPVPYPDGSVQKVPVLVEETVELKPFIDPNTDKTSTAKTVTKRKVIFPSSAGGSA [r15_884_JUSTAS] | -0.255 ± 0.21 kcal/mol | 0.76 ± 0.084 kcal/mol | 0.379 ± 0.15 kcal/mol
SAGGSAMYTVTLTLPPSLAIPPDSTITVTFPDGSTETYSVDSGPVTITLTAPADGSTSVGVSLSVPSAGGSA [r15_992_JUSTAS] | 2.6 ± 0.097 kcal/mol | 3.67 ± 0.04 kcal/mol | 3.27 ± 0.1 kcal/mol
SAGGSAGGSAGGMTAKEIAEKLGLPPGAKVVKIEYDKETNTFYIVIEVDGELKTYRIDVSAGGSAGGSAGGS [r10_17_TrROS_Hall] | 4.2 ± 0.14 kcal/mol | 4.765 ± 0.037 kcal/mol | 4.69 ± 0.087 kcal/mol
SAGGSAGGSAGGMTPEEIEALKARPLPDGSPILSIDREGNVYTITTARDPSVRTTVIPAESAGGSAGGSAGG [r7_995_JUSTAS] | -0.623 ± 0.61 kcal/mol | -0.853 ± 0.43 kcal/mol | -0.626 ± 0.54 kcal/mol
SAGLKVRIRTKDGREIEIEVSEEEAERLVKELEDAGFTVERVEVEELEPEEEKEELEEEERELKEELEESAG [r5_645_TrROS_Hall] | 3.28 ± 0.27 kcal/mol | 2.91 ± 0.069 kcal/mol | 2.72 ± 0.32 kcal/mol
SAGGKTIEVEIVVPPDMTPEEVAARLAAALPPGAKIRVEEVREVTGPDGRKYRIFKVTIYDEKTGEPLSAGG [r13_12_TrROS_Hall] | 3.61 ± 0.14 kcal/mol | 2.99 ± 0.072 kcal/mol | 3.12 ± 0.16 kcal/mol
SAGGMMYLKLKVKNKNGEEIEVLIEFDEKTGKAYIYNKKTGKKIEMTLEELLKQENIEIEEIEPLPEPSAGG [r13_994_TrROS_Hall] | 2.89 ± 0.12 kcal/mol | 4.29 ± 0.12 kcal/mol | 4.07 ± 0.13 kcal/mol
SAGGSAGGSPAPDVTIEVKVTYDPETGALRIEVEATIPGGGKITIEYTIPPLDKIEIVGVKIESAGGSAGGS [r12_1029_TrMRF] | 2.63 ± 0.15 kcal/mol | 3.83 ± 0.2 kcal/mol | 3.6 ± 0.26 kcal/mol
SAGGSADPDSPYVIRFNKPYTTFSPDGTPIELTEDVLKRFKSEEEAKKAKEELEKKGAKVEPVEGSSAGGSA [r15_117_JUSTAS] | -0.767 ± 0.41 kcal/mol | 0.242 ± 0.31 kcal/mol | -0.159 ± 0.23 kcal/mol
SAGGSASMPLTLTFTTPTRTFTVTIPPSKVSSVTVEEKGPTITVTVEAPDSTITINITPSSVTISASAGGSA [r15_598_JUSTAS] | 2.98 ± 0.13 kcal/mol | 4.19 ± 0.13 kcal/mol | 3.8 ± 0.12 kcal/mol
SAGGSAGGMTITLTLPDGTVITITVSRPGSPTTVVSVKAERPARGGTDIPEEVAKELAEKILKESAGGSAGG [r6_235_JUSTAS] | 1.51 ± 0.037 kcal/mol | 2.96 ± 0.11 kcal/mol | 2.55 ± 0.076 kcal/mol
SDDIKNMPFRITEIEPLPPGDPIPPGQRIRITIQMPDFPGQPFEFDIRVDPENGMIYMEMGGMPFEIPIKSA [r9_243_TrROS] | 1.6 ± 0.019 kcal/mol | 1.6 ± 0.13 kcal/mol | 1.67 ± 0.15 kcal/mol
SAGGSAGGSAGMWIDEDTIRRLAALLGYPGKVEVVRLEDGSLLVVVYGDTEPGVLLFPLDSAGGSAGGSAGG [r11_410_TrMRF] | 3.02 ± 0.079 kcal/mol | 2.255 ± 0.017 kcal/mol | 2.59 ± 0.048 kcal/mol
SMKVKPGEKIKVTVLALFYDKETKKLYLVKAEVEATVELDEDGNLTVKVEVKKVEVVEEMPLDELKELLKSA [r9_423_TrROS_Hall] | 2.29 ± 0.14 kcal/mol | 3.4 ± 0.067 kcal/mol | 2.97 ± 0.18 kcal/mol
SAGGKKTYKVRIEIKVTDPNGKKRTIEIELEVPESEEEAEKLAKELAEKLKEKGYKVEIVKIEVEPLSAGGS [r16_525_TrROS_Hall] | 3.98 ± 0.2 kcal/mol | 4.08 ± 0.064 kcal/mol | 4.03 ± 0.12 kcal/mol
SAGGSAEVELVKVEVNPDGPYVKATFRIPGGGDVAVLVFDPDRPNTARLIVRPPNNEPIAEIELPLSAGGSA [r15_974_TrMRF] | 1.52 ± 0.046 kcal/mol | 1.83 ± 0.28 kcal/mol | 1.65 ± 0.2 kcal/mol
SAMKLTTLSESSDPATGVRYLTVAIPSSQDDLIKEIAEELEKKGVKATILTPNVPAGSSVTIKLEFKGKSAG [r14_354_JUSTAS] | 0.109 ± 0.17 kcal/mol | 0.66 ± 0.16 kcal/mol | 0.475 ± 0.17 kcal/mol

— the supplement of paper PMC12764529
